From US12630600B2 (MEDIMMUNE LIMITED, priority 2022, dated 2026)
Starred links: 1 amine or outer side, 2 acyl side, 3 side chain; linkers in the order of their positions; H or OH if unused. Non-standard residues stand in square brackets, D forms with d. Groups on a side chain read outwards from the residue. No end group written: not given here. *: point of attachment. C20 diacid = O=C(O)CCCCCCCCCCCCCCCCCCC(=O)*; C18 diacid = O=C(O)CCCCCCCCCCCCCCCCC(=O)*; γGlu = O=C(O)[C@H](CCC(=O)[*:2])N[*:1]; αMeF = C[C@](N)(Cc1ccccc1)C(=O)O; AEEA = NCCOCCOCC(=O)O; Aib = CC(C)(N)C(=O)O

Key:
human glucagon receptor = human glucagon receptor (human, UniProt P47871); test: cell-based or functional assay
human GLP-1 receptor = human GLP-1 receptor (human, UniProt P43220); test: cell-based or functional assay

Row | Binder | cAMP production EC50 (human glucagon receptor) [nM] | cAMP production EC50 (human GLP-1 receptor) [nM]
1 | H[Aib]QGTFTSDVSK[αMeF]LDRK([AEEA-AEEA-γGlu-C20 diacid])RAQDFVRWLV[Aib]E-NH2 (N-terminus assumed; SMILES CC(C)C[C@H](NC(=O)[C@H](Cc1c[nH]c2ccccc12)NC(=O)[C@H](CCCNC(=N)N)NC(=O)[C@@H](NC(=O)[C@H](Cc1ccccc1)NC(=O)[C@H](CC(=O)O)NC(=O)[C@H](CCC(N)=O)NC(=O)[C@H](C)NC(=O)[C@H](CCCNC(=N)N)NC(=O)[C@H](CCCCNC(=O)COCCOCCNC(=O)COCCOCCNC(=O)CC[C@H](NC(=O)CCCCCCCCCCCCCCCCCCC(=O)O)C(=O)O)NC(=O)[C@H](CCCNC(=N)N)NC(=O)[C@H](CC(=O)O)NC(=O)[C@H](CC(C)C)NC(=O)[C@](C)(Cc1ccccc1)NC(=O)[C@H](CCCCN)NC(=O)[C@H](CO)NC(=O)[C@@H](NC(=O)[C@H](CC(=O)O)NC(=O)[C@H](CO)NC(=O)[C@@H](NC(=O)[C@H](Cc1ccccc1)NC(=O)[C@@H](NC(=O)CNC(=O)[C@H](CCC(N)=O)NC(=O)C(C)(C)NC(=O)[C@@H](N)Cc1c[nH]cn1)[C@@H](C)O)[C@@H](C)O)C(C)C)C(C)C)C(=O)N[C@H](C(=O)NC(C)(C)C(=O)N[C@@H](CCC(=O)O)C(N)=O)C(C)C) [Peptide 437] | 0.0969 | 0.0269
2 | H[Aib]QGTFTSDVSK[αMeF]LDRK([AEEA-AEEA-γGlu-C18 diacid])RAQDFVRWLV[Aib]E-NH2 (N-terminus assumed; SMILES CC(C)C[C@H](NC(=O)[C@H](Cc1c[nH]c2ccccc12)NC(=O)[C@H](CCCNC(=N)N)NC(=O)[C@@H](NC(=O)[C@H](Cc1ccccc1)NC(=O)[C@H](CC(=O)O)NC(=O)[C@H](CCC(N)=O)NC(=O)[C@H](C)NC(=O)[C@H](CCCNC(=N)N)NC(=O)[C@H](CCCCNC(=O)COCCOCCNC(=O)COCCOCCNC(=O)CC[C@H](NC(=O)CCCCCCCCCCCCCCCCC(=O)O)C(=O)O)NC(=O)[C@H](CCCNC(=N)N)NC(=O)[C@H](CC(=O)O)NC(=O)[C@H](CC(C)C)NC(=O)[C@](C)(Cc1ccccc1)NC(=O)[C@H](CCCCN)NC(=O)[C@H](CO)NC(=O)[C@@H](NC(=O)[C@H](CC(=O)O)NC(=O)[C@H](CO)NC(=O)[C@@H](NC(=O)[C@H](Cc1ccccc1)NC(=O)[C@@H](NC(=O)CNC(=O)[C@H](CCC(N)=O)NC(=O)C(C)(C)NC(=O)[C@@H](N)Cc1c[nH]cn1)[C@@H](C)O)[C@@H](C)O)C(C)C)C(C)C)C(=O)N[C@H](C(=O)NC(C)(C)C(=O)N[C@@H](CCC(=O)O)C(N)=O)C(C)C) [Peptide 436] | 0.0688 | 0.00743
3 | H[Aib]QGTFTSDVSK[αMeF]LDRK([AEEA-AEEA-γGlu-C18 diacid])RAQDFVRWLL[Aib]E-NH2 (N-terminus assumed; SMILES CC(C)C[C@H](NC(=O)[C@H](Cc1c[nH]c2ccccc12)NC(=O)[C@H](CCCNC(=N)N)NC(=O)[C@@H](NC(=O)[C@H](Cc1ccccc1)NC(=O)[C@H](CC(=O)O)NC(=O)[C@H](CCC(N)=O)NC(=O)[C@H](C)NC(=O)[C@H](CCCNC(=N)N)NC(=O)[C@H](CCCCNC(=O)COCCOCCNC(=O)COCCOCCNC(=O)CC[C@H](NC(=O)CCCCCCCCCCCCCCCCC(=O)O)C(=O)O)NC(=O)[C@H](CCCNC(=N)N)NC(=O)[C@H](CC(=O)O)NC(=O)[C@H](CC(C)C)NC(=O)[C@](C)(Cc1ccccc1)NC(=O)[C@H](CCCCN)NC(=O)[C@H](CO)NC(=O)[C@@H](NC(=O)[C@H](CC(=O)O)NC(=O)[C@H](CO)NC(=O)[C@@H](NC(=O)[C@H](Cc1ccccc1)NC(=O)[C@@H](NC(=O)CNC(=O)[C@H](CCC(N)=O)NC(=O)C(C)(C)NC(=O)[C@@H](N)Cc1c[nH]cn1)[C@@H](C)O)[C@@H](C)O)C(C)C)C(C)C)C(=O)N[C@@H](CC(C)C)C(=O)NC(C)(C)C(=O)N[C@@H](CCC(=O)O)C(N)=O) [Peptide 439] | 0.0577 | 0.0307
4 | H[Aib]QGTFTSDVSK[αMeF]LDTK([AEEA-AEEA-γGlu-C18 diacid])RARDFVQ[Aib]LLE[Aib]G-OH (N-terminus assumed; SMILES CC(C)C[C@H](NC(=O)[C@H](CC(C)C)NC(=O)C(C)(C)NC(=O)[C@H](CCC(N)=O)NC(=O)[C@@H](NC(=O)[C@H](Cc1ccccc1)NC(=O)[C@H](CC(=O)O)NC(=O)[C@H](CCCNC(=N)N)NC(=O)[C@H](C)NC(=O)[C@H](CCCNC(=N)N)NC(=O)[C@H](CCCCNC(=O)COCCOCCNC(=O)COCCOCCNC(=O)CC[C@H](NC(=O)CCCCCCCCCCCCCCCCC(=O)O)C(=O)O)NC(=O)[C@@H](NC(=O)[C@H](CC(=O)O)NC(=O)[C@H](CC(C)C)NC(=O)[C@](C)(Cc1ccccc1)NC(=O)[C@H](CCCCN)NC(=O)[C@H](CO)NC(=O)[C@@H](NC(=O)[C@H](CC(=O)O)NC(=O)[C@H](CO)NC(=O)[C@@H](NC(=O)[C@H](Cc1ccccc1)NC(=O)[C@@H](NC(=O)CNC(=O)[C@H](CCC(N)=O)NC(=O)C(C)(C)NC(=O)[C@@H](N)Cc1c[nH]cn1)[C@@H](C)O)[C@@H](C)O)C(C)C)[C@@H](C)O)C(C)C)C(=O)N[C@@H](CCC(=O)O)C(=O)NC(C)(C)C(=O)NCC(=O)O) [Peptide 435] | 0.24 | 0.0227
5 | H[Aib]QGTFTSDVSK[αMeF]LDKK([AEEA-AEEA-γGlu-C20 diacid])RARDFVRWLL[Aib]E-OH (N-terminus assumed; SMILES CC(C)C[C@H](NC(=O)[C@H](Cc1c[nH]c2ccccc12)NC(=O)[C@H](CCCNC(=N)N)NC(=O)[C@@H](NC(=O)[C@H](Cc1ccccc1)NC(=O)[C@H](CC(=O)O)NC(=O)[C@H](CCCNC(=N)N)NC(=O)[C@H](C)NC(=O)[C@H](CCCNC(=N)N)NC(=O)[C@H](CCCCNC(=O)COCCOCCNC(=O)COCCOCCNC(=O)CC[C@H](NC(=O)CCCCCCCCCCCCCCCCCCC(=O)O)C(=O)O)NC(=O)[C@H](CCCCN)NC(=O)[C@H](CC(=O)O)NC(=O)[C@H](CC(C)C)NC(=O)[C@](C)(Cc1ccccc1)NC(=O)[C@H](CCCCN)NC(=O)[C@H](CO)NC(=O)[C@@H](NC(=O)[C@H](CC(=O)O)NC(=O)[C@H](CO)NC(=O)[C@@H](NC(=O)[C@H](Cc1ccccc1)NC(=O)[C@@H](NC(=O)CNC(=O)[C@H](CCC(N)=O)NC(=O)C(C)(C)NC(=O)[C@@H](N)Cc1c[nH]cn1)[C@@H](C)O)[C@@H](C)O)C(C)C)C(C)C)C(=O)N[C@@H](CC(C)C)C(=O)NC(C)(C)C(=O)N[C@@H](CCC(=O)O)C(=O)O) [Peptide 440] | 0.081 | 0.154

The next lines start with the values.

Row | cAMP production EC50 (human glucagon receptor) [nM] | cAMP production EC50 (human GLP-1 receptor) [nM] | Binder
6 | 0.0358 | 0.0191 | H[Aib]QGTFTSDVSK[αMeF]LDKK([AEEA-AEEA-γGlu-C18 diacid])RAQDFVRWLLE[Aib]G-NH2 (N-terminus assumed; SMILES CC(C)C[C@H](NC(=O)[C@H](Cc1c[nH]c2ccccc12)NC(=O)[C@H](CCCNC(=N)N)NC(=O)[C@@H](NC(=O)[C@H](Cc1ccccc1)NC(=O)[C@H](CC(=O)O)NC(=O)[C@H](CCC(N)=O)NC(=O)[C@H](C)NC(=O)[C@H](CCCNC(=N)N)NC(=O)[C@H](CCCCNC(=O)COCCOCCNC(=O)COCCOCCNC(=O)CC[C@H](NC(=O)CCCCCCCCCCCCCCCCC(=O)O)C(=O)O)NC(=O)[C@H](CCCCN)NC(=O)[C@H](CC(=O)O)NC(=O)[C@H](CC(C)C)NC(=O)[C@](C)(Cc1ccccc1)NC(=O)[C@H](CCCCN)NC(=O)[C@H](CO)NC(=O)[C@@H](NC(=O)[C@H](CC(=O)O)NC(=O)[C@H](CO)NC(=O)[C@@H](NC(=O)[C@H](Cc1ccccc1)NC(=O)[C@@H](NC(=O)CNC(=O)[C@H](CCC(N)=O)NC(=O)C(C)(C)NC(=O)[C@@H](N)Cc1c[nH]cn1)[C@@H](C)O)[C@@H](C)O)C(C)C)C(C)C)C(=O)N[C@@H](CC(C)C)C(=O)N[C@@H](CCC(=O)O)C(=O)NC(C)(C)C(=O)NCC(N)=O) [Peptide 442]
7 | 0.0689 | 0.0179 | H[Aib]QGTFTSDVSK[αMeF]LDKK([AEEA-AEEA-γGlu-C18 diacid])RAQDFVRWLEA[Aib]G-NH2 (N-terminus assumed; SMILES CC(C)C[C@H](NC(=O)[C@H](Cc1c[nH]c2ccccc12)NC(=O)[C@H](CCCNC(=N)N)NC(=O)[C@@H](NC(=O)[C@H](Cc1ccccc1)NC(=O)[C@H](CC(=O)O)NC(=O)[C@H](CCC(N)=O)NC(=O)[C@H](C)NC(=O)[C@H](CCCNC(=N)N)NC(=O)[C@H](CCCCNC(=O)COCCOCCNC(=O)COCCOCCNC(=O)CC[C@H](NC(=O)CCCCCCCCCCCCCCCCC(=O)O)C(=O)O)NC(=O)[C@H](CCCCN)NC(=O)[C@H](CC(=O)O)NC(=O)[C@H](CC(C)C)NC(=O)[C@](C)(Cc1ccccc1)NC(=O)[C@H](CCCCN)NC(=O)[C@H](CO)NC(=O)[C@@H](NC(=O)[C@H](CC(=O)O)NC(=O)[C@H](CO)NC(=O)[C@@H](NC(=O)[C@H](Cc1ccccc1)NC(=O)[C@@H](NC(=O)CNC(=O)[C@H](CCC(N)=O)NC(=O)C(C)(C)NC(=O)[C@@H](N)Cc1c[nH]cn1)[C@@H](C)O)[C@@H](C)O)C(C)C)C(C)C)C(=O)N[C@@H](CCC(=O)O)C(=O)N[C@@H](C)C(=O)NC(C)(C)C(=O)NCC(N)=O) [Peptide 438]
8 | 0.0728 | 0.0627 | H[Aib]QGTFTSDVSK[αMeF]LDKK([AEEA-AEEA-γGlu-C20 diacid])RAQDFVRWLL[Aib]E-NH2 (N-terminus assumed; SMILES CC(C)C[C@H](NC(=O)[C@H](Cc1c[nH]c2ccccc12)NC(=O)[C@H](CCCNC(=N)N)NC(=O)[C@@H](NC(=O)[C@H](Cc1ccccc1)NC(=O)[C@H](CC(=O)O)NC(=O)[C@H](CCC(N)=O)NC(=O)[C@H](C)NC(=O)[C@H](CCCNC(=N)N)NC(=O)[C@H](CCCCNC(=O)COCCOCCNC(=O)COCCOCCNC(=O)CC[C@H](NC(=O)CCCCCCCCCCCCCCCCCCC(=O)O)C(=O)O)NC(=O)[C@H](CCCCN)NC(=O)[C@H](CC(=O)O)NC(=O)[C@H](CC(C)C)NC(=O)[C@](C)(Cc1ccccc1)NC(=O)[C@H](CCCCN)NC(=O)[C@H](CO)NC(=O)[C@@H](NC(=O)[C@H](CC(=O)O)NC(=O)[C@H](CO)NC(=O)[C@@H](NC(=O)[C@H](Cc1ccccc1)NC(=O)[C@@H](NC(=O)CNC(=O)[C@H](CCC(N)=O)NC(=O)C(C)(C)NC(=O)[C@@H](N)Cc1c[nH]cn1)[C@@H](C)O)[C@@H](C)O)C(C)C)C(C)C)C(=O)N[C@@H](CC(C)C)C(=O)NC(C)(C)C(=O)N[C@@H](CCC(=O)O)C(N)=O) [Peptide 441]
